From US20250236644A1 (published 2025) come the findings set out here.

Like-named read-outs stand apart in the source and are kept apart here. Ends that are not written are not given here. Where only a bound is given, the exact number is not on record here.

The target in experiment [1] is T1, TAMRA-labeled effector peptide cs221B (5(6)-TAMRA label coupled on resin after synthesis).
T1 peptide: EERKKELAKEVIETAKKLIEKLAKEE
Put plainly: fluorescence polarization. (In general: Fluorescence polarisation rises when a labelled molecule tumbles more slowly, as on binding a larger partner.)

Experiment [2] deals with T2, TAMRA-labeled effector peptide cs074B (5(6)-TAMRA label coupled on resin after synthesis).
T2 peptide: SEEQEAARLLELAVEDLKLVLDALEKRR
Put plainly: fluorescence polarization.

Experiment [3] concerns the target cs221-V111L-A114T DEER site pair 1. Put plainly: fluorescence polarization; MTSL-labeled, site pair 1.
Experiment [4] addresses T1, TAMRA-labeled effector peptide cs221B. Put plainly: fluorescence polarization.
For experiment [5], the target named is T2, TAMRA-labeled effector peptide cs074B. Put plainly: fluorescence polarization.
Experiment [6] addresses T3, TAMRA-labeled effector peptide cs201B (5(6)-TAMRA label coupled on resin after synthesis).
T3 peptide: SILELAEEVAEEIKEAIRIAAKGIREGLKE
Put plainly: fluorescence polarization.

For experiment [7], the target named is T4, TAMRA-labeled effector peptide js007B (5(6)-TAMRA label coupled on resin after synthesis).
T4 peptide: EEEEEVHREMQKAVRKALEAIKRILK
Put plainly: fluorescence polarization.

B1: swapped target hinge csw13 (designed binder)
chain: MSGNEEVKKLVEEAKKYLKEAEEYIKKAKKTGNEELLEKALKLLEKALELVKKAIELDPNNKEAIEQAVEIARALNEVAELLIEEAKKTGNEELLEKALEALEAANEALKLAIENNENDKELLAEIAVELAEVGVLLAEVLIEEAKKTGDPELLKLALEVLEAAVEALELALKLDPNNEEAVELAEEAAKLLEEVAKELKEEAKKTGDPELEKLAKEAEELAKRAKELAERQRGSGSHHWGSTHHHHHH
One may read the Kd as a measure of binding affinity in units of concentration. In experiment [1], B1 displayed a Kd of less than 1 nM.

B2: hinge cs074 (designed binder)
chain: MSGDEEVQEAVERAEELREEAEELIKKARKTGDPELLRKALEALKEAVRAVKEAIKRNPDNEEAVKTAVRLARELLKVAEELKERAEKTGDPRLLLLAAEAIAWAIEAVFLAAKASENTEGALEAARAAVKLAEVAKRIAKLLQRDAKKEGDPELLKLALRALELAVRAVELAIKENPDNEEAVETAKRLAEELRKVAELLEERAKETGDPELQELAKRAKEVADRARELAKKSNPNNGSGSHHWGSTHHHHHH
In experiment [2], B2 gave a Kd of 1 nM.

B3: TAMRA-labeled peptide cs221B (peptide)
peptide: {5(6)‑TAMRA}-EERKKELAKEVIETAKKLIEKLAKEE
In experiment [3], B3 registered a Kd of 0.4 nM.

B4: hinge cs221 (designed binder)
chain: MSGEMKEEIRRLAEELRERTKDEEVRELAREAARLAEESDDEEVKEVVKKALEAALKSKDEEVIRLLLLAAVLAAAAARSGSPEEKLEIAKKALELAMKSKDEEVIRLALLAAVLAARSDDEEVLKKVKEALEKAMESKDVEEIRERLREAVEVARAGSGSHHWGSTHHHHHH
In experiment [4], B4 came in with a Kd of 1.5 nM.

B5: swapped target hinge csw20 (designed binder)
chain: MSGMEEVKELVEKAEELAKEAEELIKKAKKTGNPELLKEALRKLKEAVELAKEAVELDPEHEEAIELLARLAEKLLEVAKLLIELAKKTGNPELLKEALRALKEAREALRLAAEHAPEDAKLLARLAARLAELALLIAKILIELAKKTGNPELLLKALKVLTLAVEAVEAALEADPRLKEAVRVAKELAEVLKELAKLAKELAKKTGNEELKEAAKEAEEVAKRAEELAREAEGSGSHHWGSTHHHHHH
For B5, the Kd was less than 1 nM in experiment [5], 12 nM in experiment [6] and 1500 nM in experiment [1].

B6: hinge js007 (designed binder)
chain: MSGSEEVNERVKQLAEKAKEATDKEEVIEIVKELAELAKQSTDPNLVAEVVRALTEVAKTSTDTELIQEIVKVLLELARRLTDPQLLLEVLKSIAELLKELAEKTGNETAKLAALVAQIAAEVVEMALRAEKTHPGSEIVKLAVELVQKVAEIVLIAAQLMLDKPNSDEVRKVLKEVEKVAREALKALREAKRHPDSQKARDEIKEASQKAEEVKERIERAQEGSGSHHWGSTHHHHHH
For B6, the Kd in experiment [7] stood at 6 nM.

B7: hinge cs201 (designed binder)
chain: MSGDEEVQEAVERAEELREEAEELIKKARKTGDPELLRKALEALKEAVRAVREAIKRNPDNEEAIKTALRLARELRKVAKELIERARKTGDAELLKKALEAARVAVEAVRLAAEYNKENAEKMAELLVELAELAREVADVLIELAEKTGDPELLKKALEVLEEAVEAVRLAIEYDPDHEEAVETAKRLAEELRKVAELLEERAKETGDPELQELAKRAKEVADRARELAKKSNGSGSHHWGSTHHHHHH
Consider B7, for which the results for the Kd in experiment [6] and in experiment [1] were 17 nM and 4370 nM, respectively.
